Laboratory results as given in the supplement of paper PMC9112550, “Optimization of the antimicrobial peptide Bac7 by deep mutational scanning” (BMC Biology, 2022).

Test system: Escherichia coli TOP10
Test: shrunken log2 fold change of peptide-encoding DNA abundance (4.5 h post-induction vs induction); higher = less antimicrobial activity (less host growth inhibition)
Settings: time post-induction: 4.5 h; library: site-saturation at positions 5, 18, 19, 20
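Note: peptides expressed intracellularly from a pBAD plasmid library in pooled LB shake-flask culture, induced with 0.3% L-arabinose, DNA abundance read by NGS, three biological replicates, DESeq2 with apeglm shrinkage.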

In the case of RRIRVRPPRLPRPRPRPNNMPRP, the “shrunken log2 fold change” value is reported as -0.537.

For RRIRGRPPRLPRPRPRPSKPPRP, the “shrunken log2 fold change” value was 0.218.

In the case of RRIRGRPPRLPRPRPRPNRTPRP, the “shrunken log2 fold change” value is reported as -0.0769.

In the case of RRIRLRPPRLPRPRPRPGWGPRP, the “shrunken log2 fold change” value is reported as 0.335.

With RRIRFRPPRLPRPRPRPMCDPRP the “shrunken log2 fold change” value was 0.226.

RRIRQRPPRLPRPRPRPYHVPRP was tested, and the “shrunken log2 fold change” value was -0.00172.

With RRIRDRPPRLPRPRPRPLMPPRP the “shrunken log2 fold change” value was 0.097.

In the case of RRIRYRPPRLPRPRPRPPRHPRP, the “shrunken log2 fold change” value is reported as 0.00412.

For RRIRTRPPRLPRPRPRPADGPRP, the “shrunken log2 fold change” value was -0.0563.

RRIRIRPPRLPRPRPRPYMIPRP was tested, and the “shrunken log2 fold change” value was -0.307.

With RRIRCRPPRLPRPRPRPTLAPRP the “shrunken log2 fold change” value was 0.645.

With RRIRPRPPRLPRPRPRPNEAPRP the “shrunken log2 fold change” value was -0.151.

With RRIRLRPPRLPRPRPRPNMCPRP the “shrunken log2 fold change” value was 0.0102.

In the case of RRIRGRPPRLPRPRPRPMSRPRP, the “shrunken log2 fold change” value is reported as 0.00829.

RRIRPRPPRLPRPRPRPLCDPRP was tested, and the “shrunken log2 fold change” value was -0.312.

In the case of RRIRYRPPRLPRPRPRPFAVPRP, the “shrunken log2 fold change” value is reported as -1.09.

RRIRLRPPRLPRPRPRPRTSPRP was tested, and the “shrunken log2 fold change” value was 0.288.

RRIRQRPPRLPRPRPRPHCGPRP was tested, and the “shrunken log2 fold change” value was 0.0588.

In the case of RRIRMRPPRLPRPRPRPPQYPRP, the “shrunken log2 fold change” value is reported as 0.465.

For RRIRNRPPRLPRPRPRPPRGPRP, the “shrunken log2 fold change” value was 1.3.

With RRIRDRPPRLPRPRPRPCKEPRP the “shrunken log2 fold change” value was 0.00884.

In the case of RRIRLRPPRLPRPRPRPPWMPRP, the “shrunken log2 fold change” value is reported as 0.167.

For RRIRGRPPRLPRPRPRPYKEPRP, the “shrunken log2 fold change” value was -0.375.

For RRIRSRPPRLPRPRPRPNDIPRP, the “shrunken log2 fold change” value was -0.333.

For RRIRGRPPRLPRPRPRPFSCPRP, the “shrunken log2 fold change” value was -0.262.

In the case of RRIRGRPPRLPRPRPRPNCWPRP, the “shrunken log2 fold change” value is reported as 0.303.

RRIRSRPPRLPRPRPRPYTMPRP was tested, and the “shrunken log2 fold change” value was -0.19.

RRIRPRPPRLPRPRPRPNMRPRP was tested, and the “shrunken log2 fold change” value was 0.272.

In the case of RRIRFRPPRLPRPRPRPSRTPRP, the “shrunken log2 fold change” value is reported as 0.0872.

RRIRVRPPRLPRPRPRPIDIPRP was tested, and the “shrunken log2 fold change” value was -0.11.

For RRIRLRPPRLPRPRPRPSNMPRP, the “shrunken log2 fold change” value was -0.406.

With RRIRDRPPRLPRPRPRPYQIPRP the “shrunken log2 fold change” value was -0.238.

For RRIRVRPPRLPRPRPRPSCPPRP, the “shrunken log2 fold change” value was -0.245.

For RRIRRRPPRLPRPRPRPVYDPRP, the “shrunken log2 fold change” value was -0.331.

With RRIRQRPPRLPRPRPRPLPFPRP the “shrunken log2 fold change” value was -0.782.

RRIRNRPPRLPRPRPRPMDMPRP was tested, and the “shrunken log2 fold change” value was -0.235.

With RRIRVRPPRLPRPRPRPSFSPRP the “shrunken log2 fold change” value was -0.498.

In the case of RRIRLRPPRLPRPRPRPYKTPRP, the “shrunken log2 fold change” value is reported as -0.352.

In the case of RRIRPRPPRLPRPRPRPWACPRP, the “shrunken log2 fold change” value is reported as -0.00713.

For RRIRERPPRLPRPRPRPPNAPRP, the “shrunken log2 fold change” value was 0.186.

In the case of RRIRRRPPRLPRPRPRPLKSPRP, the “shrunken log2 fold change” value is reported as -0.215.

RRIRKRPPRLPRPRPRPFNSPRP was tested, and the “shrunken log2 fold change” value was -0.0903.

In the case of RRIRYRPPRLPRPRPRPRKIPRP, the “shrunken log2 fold change” value is reported as -0.483.

RRIRFRPPRLPRPRPRPDMSPRP was tested, and the “shrunken log2 fold change” value was -0.0802.

In the case of RRIRPRPPRLPRPRPRPSWHPRP, the “shrunken log2 fold change” value is reported as 0.182.

In the case of RRIRIRPPRLPRPRPRPILEPRP, the “shrunken log2 fold change” value is reported as 0.0083.

RRIRLRPPRLPRPRPRPCQIPRP was tested, and the “shrunken log2 fold change” value was -0.102.

For RRIRTRPPRLPRPRPRPRGNPRP, the “shrunken log2 fold change” value was 0.0399.

For RRIRWRPPRLPRPRPRPAYEPRP, the “shrunken log2 fold change” value was -0.0308.

RRIRKRPPRLPRPRPRPTYKPRP was tested, and the “shrunken log2 fold change” value was -0.198.

For RRIRGRPPRLPRPRPRPHNVPRP, the “shrunken log2 fold change” value was 0.0498.

In the case of RRIRIRPPRLPRPRPRPVVPPRP, the “shrunken log2 fold change” value is reported as -0.215.

For RRIRERPPRLPRPRPRPPYAPRP, the “shrunken log2 fold change” value was -0.208.

For RRIRNRPPRLPRPRPRPATKPRP, the “shrunken log2 fold change” value was -0.0346.

RRIRLRPPRLPRPRPRPVHQPRP was tested, and the “shrunken log2 fold change” value was 0.244.

In the case of RRIRQRPPRLPRPRPRPIALPRP, the “shrunken log2 fold change” value is reported as -0.213.

RRIRIRPPRLPRPRPRPLEKPRP was tested, and the “shrunken log2 fold change” value was -0.0295.

RRIRTRPPRLPRPRPRPNYYPRP was tested, and the “shrunken log2 fold change” value was -0.66.

With RRIRWRPPRLPRPRPRPPSVPRP the “shrunken log2 fold change” value was 0.171.

In the case of RRIRWRPPRLPRPRPRPINSPRP, the “shrunken log2 fold change” value is reported as -0.498.

In the case of RRIRWRPPRLPRPRPRPAHVPRP, the “shrunken log2 fold change” value is reported as -0.0191.

RRIRERPPRLPRPRPRPPFCPRP was tested, and the “shrunken log2 fold change” value was 0.117.

In the case of RRIRGRPPRLPRPRPRPRHVPRP, the “shrunken log2 fold change” value is reported as 0.218.

RRIRGRPPRLPRPRPRPRFSPRP was tested, and the “shrunken log2 fold change” value was 0.0932.

With RRIRPRPPRLPRPRPRPNAWPRP the “shrunken log2 fold change” value was 0.356.

RRIRLRPPRLPRPRPRPLKFPRP was tested, and the “shrunken log2 fold change” value was -0.57.

With RRIRHRPPRLPRPRPRPPRPPRP the “shrunken log2 fold change” value was 0.664.

With RRIRMRPPRLPRPRPRPKSDPRP the “shrunken log2 fold change” value was 0.466.

With RRIRNRPPRLPRPRPRPHKLPRP the “shrunken log2 fold change” value was -0.411.

RRIRSRPPRLPRPRPRPTAPPRP was tested, and the “shrunken log2 fold change” value was 0.317.

RRIRIRPPRLPRPRPRPELYPRP was tested, and the “shrunken log2 fold change” value was -0.0779.

RRIRMRPPRLPRPRPRPTRMPRP was tested, and the “shrunken log2 fold change” value was 0.685.

In the case of RRIRSRPPRLPRPRPRPHTLPRP, the “shrunken log2 fold change” value is reported as -0.116.

For RRIRARPPRLPRPRPRPRQFPRP, the “shrunken log2 fold change” value was 0.32.

RRIRRRPPRLPRPRPRPAAAPRP was tested, and the “shrunken log2 fold change” value was 0.941.

With RRIRMRPPRLPRPRPRPAKTPRP the “shrunken log2 fold change” value was 0.0368.

In the case of RRIRGRPPRLPRPRPRPCMQPRP, the “shrunken log2 fold change” value is reported as -0.0315.

RRIRPRPPRLPRPRPRPAQPPRP was tested, and the “shrunken log2 fold change” value was 0.732.

RRIRARPPRLPRPRPRPRLFPRP was tested, and the “shrunken log2 fold change” value was 0.465.

With RRIRCRPPRLPRPRPRPWMIPRP the “shrunken log2 fold change” value was -0.0852.

RRIRIRPPRLPRPRPRPRSLPRP was tested, and the “shrunken log2 fold change” value was -0.036.

RRIRLRPPRLPRPRPRPVSFPRP was tested, and the “shrunken log2 fold change” value was 0.0353.

In the case of RRIRWRPPRLPRPRPRPSRNPRP, the “shrunken log2 fold change” value is reported as -0.0585.

RRIRVRPPRLPRPRPRPLSFPRP was tested, and the “shrunken log2 fold change” value was -0.426.

For RRIRSRPPRLPRPRPRPTTQPRP, the “shrunken log2 fold change” value was 0.22.

RRIRHRPPRLPRPRPRPSCPPRP was tested, and the “shrunken log2 fold change” value was -0.217.

For RRIRIRPPRLPRPRPRPEDMPRP, the “shrunken log2 fold change” value was 0.0397.

With RRIRSRPPRLPRPRPRPFGGPRP the “shrunken log2 fold change” value was -0.0941.

In the case of RRIRPRPPRLPRPRPRPFAVPRP, the “shrunken log2 fold change” value is reported as -0.113.

In the case of RRIRRRPPRLPRPRPRPVHCPRP, the “shrunken log2 fold change” value is reported as 0.345.

For RRIRERPPRLPRPRPRPRVLPRP, the “shrunken log2 fold change” value was 0.161.

With RRIRSRPPRLPRPRPRPDAYPRP the “shrunken log2 fold change” value was 0.101.

RRIRYRPPRLPRPRPRPHIMPRP was tested, and the “shrunken log2 fold change” value was -0.955.

RRIRKRPPRLPRPRPRPMMTPRP was tested, and the “shrunken log2 fold change” value was 0.452.

For RRIRQRPPRLPRPRPRPEQNPRP, the “shrunken log2 fold change” value was -0.012.

For RRIRRRPPRLPRPRPRPSKQPRP, the “shrunken log2 fold change” value was -0.118.

For RRIRHRPPRLPRPRPRPLYHPRP, the “shrunken log2 fold change” value was -0.198.

With RRIRFRPPRLPRPRPRPAKMPRP the “shrunken log2 fold change” value was 0.207.

In the case of RRIRDRPPRLPRPRPRPAPAPRP, the “shrunken log2 fold change” value is reported as 0.661.

For RRIRQRPPRLPRPRPRPTSHPRP, the “shrunken log2 fold change” value was 0.0206.

With RRIRVRPPRLPRPRPRPYLRPRP the “shrunken log2 fold change” value was -0.165.

RRIRIRPPRLPRPRPRPELNPRP was tested, and the “shrunken log2 fold change” value was 0.12.

For RRIRIRPPRLPRPRPRPAIGPRP, the “shrunken log2 fold change” value was -0.207.

For RRIRCRPPRLPRPRPRPEIYPRP, the “shrunken log2 fold change” value was -0.0456.

With RRIRPRPPRLPRPRPRPATDPRP the “shrunken log2 fold change” value was 0.00951.

RRIRDRPPRLPRPRPRPAGPPRP was tested, and the “shrunken log2 fold change” value was 0.271.

With RRIRKRPPRLPRPRPRPHALPRP the “shrunken log2 fold change” value was 0.154.

RRIRCRPPRLPRPRPRPWGVPRP was tested, and the “shrunken log2 fold change” value was 0.122.

In the case of RRIRGRPPRLPRPRPRPRWEPRP, the “shrunken log2 fold change” value is reported as 0.946.

In the case of RRIRFRPPRLPRPRPRPWQNPRP, the “shrunken log2 fold change” value is reported as -0.00226.

For RRIRERPPRLPRPRPRPRRYPRP, the “shrunken log2 fold change” value was -0.184.

For RRIRLRPPRLPRPRPRPSKFPRP, the “shrunken log2 fold change” value was -0.276.

RRIRGRPPRLPRPRPRPCGLPRP was tested, and the “shrunken log2 fold change” value was 0.641.

With RRIRMRPPRLPRPRPRPDADPRP the “shrunken log2 fold change” value was 3.36.

In the case of RRIRHRPPRLPRPRPRPVGGPRP, the “shrunken log2 fold change” value is reported as 0.417.

With RRIRTRPPRLPRPRPRPHECPRP the “shrunken log2 fold change” value was -0.287.

In the case of RRIRQRPPRLPRPRPRPMNFPRP, the “shrunken log2 fold change” value is reported as -0.01.

In the case of RRIRYRPPRLPRPRPRPLHLPRP, the “shrunken log2 fold change” value is reported as -0.516.

In the case of RRIRPRPPRLPRPRPRPEWTPRP, the “shrunken log2 fold change” value is reported as 0.22.

With RRIRQRPPRLPRPRPRPELEPRP the “shrunken log2 fold change” value was -0.0293.

For RRIRNRPPRLPRPRPRPVCIPRP, the “shrunken log2 fold change” value was -0.215.

For RRIRFRPPRLPRPRPRPVVSPRP, the “shrunken log2 fold change” value was 0.0235.

RRIRDRPPRLPRPRPRPMYSPRP was tested, and the “shrunken log2 fold change” value was 0.0101.

In the case of RRIRIRPPRLPRPRPRPICWPRP, the “shrunken log2 fold change” value is reported as 0.307.

RRIRLRPPRLPRPRPRPQIDPRP was tested, and the “shrunken log2 fold change” value was 0.0696.
